Data on two substances can be found in paper PMC13148777.

The target in assay [1] is HAdV-D10 penton base (human adenovirus D 10 (HAdV-D10)). As to the kind of experiment: cryo-EM structure; purified HAdV-D10 virions; symmetry expansion, focused classification and refinement of penton and fiber shaft without symmetry (C1); 4.6 Å global, fiber shaft about 10 Å; AlphaFold3 fiber-penton model fitted as a rigid body.
The target of assay [2] is HAdV-D10 fiber protein (human adenovirus D 10 (HAdV-D10)). The description is as above.

The stoichiometry N is a count of units in the complex or per binding partner.

In turn, HAdV-D10 penton base (natural protein) gave a stoichiometry N in assay [1] of 5.

Turning to “HAdV-D10 fiber protein (natural protein)”, the stoichiometry N in assay [2] is 3.
